According to US10745365B2, “Luminogenic and fluorogenic compounds and methods to detect molecules or conditions” (Promega Corporation, priority 2005, dated 2020):

How the values were obtained:
[1] = substrate: CNCCCOc1ccc2nc(C3=N[C@@H](C(=O)O)CS3)ccc2c1; experiment: Two-step luminescent FMO 3 assay; type: biochemical, human; conditions: other: fit of Table 33
[2] = substrate: O=C(O)[C@H]1O[C@@H](Oc2ccc3nc(C4=N[C@@H](C(=O)O)CS4)sc3c2)[C@H](O)[C@@H](O)[C@@H]1O; experiment: Beta-glucuronidase (GUS) assay; type: biochemical, human; conditions: other: 50 mM MES, pH 6.3
Protocol: The source of the human enzyme was Sigma-Aldrich. GUS was incubated with the substrate in 50 mM MES, pH 6.3, for 15 minutes.

[3] = substrate: CNCCCOc1ccc2c(C)cc(=O)oc2c1; experiment: Fluorogenic MAO A substrate assay; type: biochemical, human; conditions: other: fit of Table 31
Protocol: (§1) The fluorescent signal was then measured (excitation/emission=355/460 nm) on a Fluoroskan Ascent plate fluorometer.
(§2) This 90 μl contained 35 μl 200 mM Tricine pH 8.3, 35 μl 200 mM Tricine pH 8.7 (or water), 10 μl 200 mM MgSO4, and 10 μl of each substrate dilution.

[4] = substrate: CNCCCOc1ccc2nc(C3=N[C@@H](C(=O)O)CS3)ccc2c1; experiment: purified protein, by the assay type
[5] = substrate: NCCCOc1ccc2nc(C3=N[C@@H](C(=O)O)CS3)sc2c1; experiment: purified protein, by the assay type; conditions: other: fit of Tables 23-24
[6] = substrate: CNCCCOc1ccc2nc(C3=N[C@@H](C(=O)O)CS3)ccc2c1; experiment: Two-step bioluminogenic MAO B substrate assay; type: biochemical, human; conditions: other: fit of Tables 23-24
[7] = substrate: NCCCOc1ccc2nc(C3=N[C@@H](C(=O)O)CS3)sc2c1; experiment: Two-step bioluminogenic MAO B substrate assay; type: biochemical, human
[8] = substrate: CNCCCOc1ccc2c(C)cc(=O)oc2c1; experiment: Fluorogenic MAO B substrate assay; type: biochemical, human; conditions: other: fit of Table 31
Protocol: as §1, §2

B1: human recombinant flavin-containing monooxygenase 3 (FMO 3) (Homo sapiens) (protein)
chain: MGKKVAIIGAGVSGLASIRSCLEEGLEPTCFEKSNDIGGLWKFSDHAEEGRASIYKSVFSNSSKEMMCFPDFPFPDDFPNFMHNSKIQEYIIAFAKEKNLLKYIQFKTFVSSVNKHPDFATTGQWDVTTERDGKKESAVFDAVMVCSGHHVYPNLPKESFPGLNHFKGKCFHSRDYKEPGVFNGKRVLVVGLGNSGCDIATELSRTAEQVMISSRSGSWVMSRVWDNGYPWDMLLVTRFGTFLKNNLPTAISDWLYVKQMNARFKHENYGLMPLNGVLRKEPVFNDELPASILCGIVSVKPNVKEFTETSAIFEDGTIFEGIDCVIFATGYSFAYPFLDESIIKSRNNEIILFKGVFPPLLEKSTIAVIGFVQSLGAAIPTVDLQSRWAAQVIKGTCTLPSMEDMMNDINEKMEKKRKWFGKSETIQTDYIVYMDELSSFIGAKPNIPWLFLTDPKLAMEVYFGPCSPYQFRLVGPGQWPGARNAILTQWDRSLKPMQTRVVGRLQKPCFFFHWLKLFAIPILLIAVFLVLT
notes: purchased Sigma Chemical Company F-5053; host or cells: baculovirus infected insect cells (microsomes)
Q: B1 was tested. Which Km [1] did it give?
A: Its Km is 200 ± 20 µM.

B2: beta-glucuronidase (GUS) (Homo sapiens) (protein)
chain: LQGGMLYPQESPSRECKELDGLWSFRADFSDNRRRGFEEQWYRRPLWESGPTVDMPVPSSFNDISQDWRLRHFVGWVWYEREVILPERWTQDLRTRVVLRIGSAHSYAIVWVNGVDTLEHEGGYLPFEADISNLVQVGPLPSRLRITIAINNTLTPTTLPPGTIQYLTDTSKYPKGYFVQNTYFDFFNYAGLQRSVLLYTTPTTYIDDITVTTSVEQDSGLVNYQISVKGSNLFKLEVRLLDAENKVVANGTGTQGQLKVPGVSLWWPYLMHERPAYLYSLEVQLTAQTSLGPVSDFYTLPVGIRTVAVTKSQFLINGKPFYFHGVNKHEDADIRGKGFDWPLLVKDFNLLRWLGANAFRTSHYPYAEEVMQMCDRYGIVVIDECPGVGLALPQFFNNVSLHHHMQVMEEVVRRDKNHPAVVMWSVANEPASHLESAGYYLKMVIAHTKSLDPSRPVTFVSNSNYAADKGAPYVDVICLNSYYSWYHDYGHLELIQLQLATQFENWYKKYQKPIIQSEYGAETIAGFHQDPPLMFTEEYQKSLLEQYHLGLDQKRRKYVVGELIWNFADFMTEQSPTRVLGNKKGIFTRQRQPKSAAFLLRERYWKIANETRYPHSVAKSQCLENSLFT
notes: purchased Sigma-Aldrich
Q: With B2 as the protein, how does the Km [2] read?
A: The Km was 180 ± 30 µM.

B3: human recombinant monoamine oxidase A (MAO A) (Homo sapiens) (protein)
chain: MENQEKASIAGHMFDVVVIGGGISGLSAAKLLTEYGVSVLVLEARDRVGGRTYTIRNEHVDYVDVGGAYVGPTQNRILRLSKELGIETYKVNVSERLVQYVKGKTYPFRGAFPPVWNPIAYLDYNNLWRTIDNMGKEIPTDAPWEAQHADKWDKMTMKELIDKICWTKTARRFAYLFVNINVTSEPHEVSALWFLWYVKQCGGTTRIFSVTNGGQERKFVGGSGQVSERIMDLLGDQVKLNHPVTHVDQSSDNIIIETLNHEHYECKYVINAIPPTLTAKIHFRPELPAERNQLIQRLPMGAVIKCMMYYKEAFWKKKDYCGCMIIEDEDAPISITLDDTKPDGSLPAIMGFILARKADRLAKLHKEIRKKKICELYAKVLGSQEALHPVHYEEKNWCEEQYSGGCYTAYFPPGIMTQYGRVIRQPVGRIFFAGTETATKWSGYMEGAVEAGERAAREVLNGLGKVTEKDIWVQEPESKDVPAVEITHTFWERNLPSVSGLLKIIGFSTSVTALGFVLYKYKLLPRS
notes: purchased Sigma Chemical Company M-7316; host or cells: baculovirus infected insect cells (microsomes)
Q: With B3 as the protein, how does the Km [3] read?
A: Its Km is 21 ± 1 µM.

Q: What about the Km ([4]; other: fit of Table 22) of the same protein?
A: The Km was 1560 ± 130 µM.

Q: What about the Km ([4]; other: fit of Tables 23-24) of the same protein?
A: Its Km is 1700 µM.

Q: What about the Km [5] of the same protein?
A: Its Km is 1320 µM.

B4: human recombinant monoamine oxidase B (MAO B) (Homo sapiens) (protein)
chain: MSNKCDVVVVGGGISGMAAAKLLHDSGLNVVVLEARDRVGGRTYTLRNQKVKYVDLGGSYVGPTQNRILRLAKELGLETYKVNEVERLIHHVKGKSYPFRGPFPPVWNPITYLDHNNFWRTMDDMGREIPSDAPWKAPLAEEWDNMTMKELLDKLCWTESAKQLATLFVNLCVTAETHEVSALWFLWYVKQCGGTTRIISTTNGGQERKFVGGSGQVSERIMDLLGDRVKLERPVIYIDQTRENVLVETLNHEMYEAKYVISAIPPTLGMKIHFNPPLPMMRNQMITRVPLGSVIKCIVYYKEPFWRKKDYCGTMIIDGEEAPVAYTLDDTKPEGNYAAIMGFILAHKARKLARLTKEERLKKLCELYAKVLGSLEALEPVHYEEKNWCEEQYSGGCYTTYFPPGILTQYGRVLRQPVDRIYFAGTETATHWSGYMEGAVEAGERAAREILHAMGKIPEDEIWQSEPESVDVPAQPITTTFLERHLPSVPGLLRLIGLTTIFSATALGFLAHKRGLLVRV
notes: purchased Sigma Chemical Company M-7441; host or cells: baculovirus infected insect cells (microsomes)
Q: For B4, which Km [6] is on record?
A: Its Km is 650 µM.

Q: What about the Km ([7]; other: fit of Table 21) of the same protein?
A: Its Km is 24 ± 1 µM.

Q: What about the Km ([7]; other: fit of Tables 23-24) of the same protein?
A: The Km was 1880 µM.

Q: And the Km [8]?
A: Its Km is 16 ± 1 µM.
